Measured values taken from patent publication US9221867B2, “Method for transporting a compound across the blood-brain barrier” (Angiochem Inc., priority 2003, dated 2015).
Entries after “also recorded” stand apart in the source; their conditions may differ. Read-outs that look alike come from different tables or passages of the source. Where a SMILES comes first, the peptide text is derived from it.

Key:
BBCEC monolayers = assay: SDS-PAGE/autoradiography of protein integrity after transcytosis across BBCEC monolayers; format: in vitro ADME, bovine; settings: 250 nM, SDS-PAGE, FIG. 4
Text: At each time point, filters were put in the next well of the 6-well plates. At the end of the experiment, aliquots were taken in each well and submitted to SDS-PAGE. Gels were then submitted to detection by autoradiography. The results, presented in FIG. 4, indicate that aprotinin integrity is not affected by its transcytosis across BBCEC monolayers.

mouse brain = assay: In situ mouse brain perfusion (apparent volume of distribution); settings: 10 min perfusion
Procedure: The uptake of [^125I]-aprotinin to the luminal side of mouse brain capillaries was measured using the in situ brain perfusion method adapted in our laboratory for the study of drug uptake in the mouse brain (Dagenais et al., 2000, J. Cereb. Blood Flow Metab. 20(2):381-386). Briefly, the right common carotid of ketamine/xylazine (140/8 mg/kg i.p.) anesthetized mice was exposed and ligated at the level of the bifurcation of the common carotid, rostral to the occipital artery. The common carotid was then catheterized rostrally with polyethylene tubing (0.30 mm i.d.×0.70 mm o.d.) filled with heparin (25 U/ml) and mounted on a 26-gauge needle. The syringe containing the perfusion fluid (10 nM of [^125I]-aprotinin in Krebs/bicarbonate buffer at a pH7.4 gassed with 95% O2 and 5% CO2) was placed in an infusion pump (Harvard pump PHD 2000; Harvard Apparatus) and connected to the catheter. […]
Aprotinin uptake was expressed as the volume of distribution (Vd) from the following equation: Vd=Q*br/C*pf where Q*br is the calculated quantity of [^125I]-aprotinin per gram of right brain hemisphere and C*pf is the labeled tracer concentration measured in the perfusate.
The brain apparent volume of distribution was measured for [^125I]-transferrin, [^125I]-aprotinin and [^125I]-Angio-pep1. […]

[1] = tested on: endothelial cell monolayers (in vitro blood-brain barrier model); assay: Permeability coefficient (Pe) of proteins in the in vitro blood-brain barrier model; settings: for Ratios (permeability coefficients): Pe of Angio-pep1 divided by Pe of the named protein; for Permeability coefficient (Pe): in vitro blood-brain barrier model
Procedure: (§1) The permeability coefficient (Pe) was calculated as:
(§2) At the end of the experiments, amounts of the radiotracers in the basolateral compartment were measured in a liquid scintillation counter. The permeability coefficient (Pe) for sucrose was calculated as previously described (Dehouck, M. P., Jolliet-Riant, P., Brée, F., Fruchart, J. C., Cecchelli, R., Tillement, J. P., J. Neurochem. 58:1790-1797, 1992) using filters coated or non-coated with EC.
(§3) The transport of Angio-pep1 from the apical-to-basolateral side of inserts covered with or without endothelial cell monolayers was measured. The results are expressed as the clearance of Angio-pep1 as a function of time. The slopes correspond to the permeability of the peptide through the filter alone (Psf) and to the total permeability of the endothelial cell monolayers (Pst).
(§4) The permeability coefficients for Angio-pep1, aprotinin, leptin and transferrin were determined using the in vitro blood-brain barrier model. The permeability coefficient (Pe) was calculated as described above.

[2] = tested on: bovine brain capillary endothelial cells (BBCECs); assay: Transcytosis of 125I-proteins across BBCEC monolayers (in vitro blood-brain barrier model); settings: for Transcytosis: across in vitro BBB model; for Ratios Aprotinin/Protein: aprotinin transcytosis divided by that of the named protein
Procedure: (§5) The model consists of a co-culture of bovine brain capillary endothelial cells and rat glial cells.
(§6) The in vitro model of BBB was established by using a co-culture of BBCECs and astrocytes. Prior to cell culture, plate inserts (Millicell-PC 3.0 μM; 30-mm diameter) were coated on the upper side with rat tail collagen. They were then set in six-well microplates containing the astrocytes and BBCECs were plated on the upper side of the filters in 2 mL of co-culture medium. This BBCEC medium was changed three times a week. Under these conditions, differentiated BBCECs formed a confluent monolayer 7 days later. Experiments were performed between 5 and 7 days after confluence was reached. The permeability coefficient for sucrose was measured to verify the endothelial permeability.
(§7) Briefly, after removing the meninges, the brain tissue was forced gently through a 82 μm nylon sieve. Astrocytes were plated on six-well microplates at a concentration of 1.2×10^5 cells/mL in 2 mL of optimal culture medium (DMEM) supplemented with 10% heat inactivated fetal bovine serum. The medium was changed twice a week.
(§8) Bovine brain capillary endothelial cells (BBCECs) were obtained from Cellial Technologies. The cells were cultured in the presence of DMEM medium supplemented with 10% (v/v) horse serum and 10% heat-inactivated calf serum, 2 mM of glutamine, 50 μg/mL of gentamycin, and 1 ng/mL of basic fibroblast growth factor, added every other day.
(§9) One insert covered with BBCECs was set into a six-well microplate with 2 mL of Ringer-Hepes and was pre-incubated for 2 h at 37° C. [^125I]-aprotinin, [^125I]-p97, [^125I]-ceruloplasmin or [^125I]-transferrin (250 nM final concentration) was added to the upper side of the filter covered with cells. At various times, the insert was transferred to another well to avoid a possible reendocytosis of [^125I]-proteins by the abluminal side of the BBCECs. At the end of experiment, [^125I]-proteins were assessed in 500 μL of the lower chamber of well by TCA precipitation.
(§10) Aprotinin, p97 and bovine holo-transferrin were iodinated with standard procedures using iodo-beads from Sigma™. Bovine holo-transferrin was diluted in 0.1M phosphate buffer, pH 6.5 (PB). P97 obtained from Synapse Technologies in neutralized citrate at pH 7.0 was dialyzed against this PB. Two iodo-beads were used for each protein. These beads were washed twice with 3 mL of PB on a Whatman™ filter and resuspended in 60 μL of PB. ^125I (1 mCi) from Amersham-Pharmacia biotech was added to the bead suspension for 5 minutes at room temperature. The iodination for each protein was initiated by the addition of 100 μg (80-100 μL).

[3] = tested on: bovine brain capillary endothelial cells (BBCECs)
Procedure: as §5, §6, §7, §8, §9, §10

[4] = tested on: endothelial cell monolayers (in vitro blood-brain barrier model)
Procedure: as §1, §2, §3, §4

in vitro = settings: bovine
Procedure: as §1, §2, §3, §4

Compound | Ratios (permeability coefficients) [1] | Permeability coefficient (Pe) [1] [×10⁻⁶ cm/s] | Transcytosis [2] [pmol/h/cm^2] | Ratios Aprotinin/Protein [2] | further results
aprotinin | 7.5 | 2.67 | 2.7 | 1 | integrity of the protein after transcytosis across BBCEC monolayers (BBCEC monolayers): not affected; brain uptake / apparent volume of distribution (mouse brain): higher brain uptake; also recorded: higher than that of transferrin; transcytosis capacity compared with other proteins ([2]; in vitro blood-brain barrier model): higher transcytosis capacity than transferrin, p97 or ceruloplasmin; transendothelial transport / transcytosis of aprotinin higher than that of other proteins ([2]; versus other tested proteins incl. transferrin, ceruloplasmin): 10-50 fold
Leptin: comparison protein for permeability coefficient [reference compound] | 21 | 0.917 |  |  | 
Streptavidin: comparison protein in transcytosis experiment [reference compound] |  |  | 0.09 | 30 | 
C[C@@H](O)[C@H](N)C(=O)N[C@@H](Cc1ccccc1)C(=O)N[C@@H](Cc1ccccc1)C(=O)N[C@@H](Cc1ccc(O)cc1)C(=O)NCC(=O)NCC(=O)N[C@@H](CS)C(=O)N[C@@H](CCCNC(=N)N)C(=O)NCC(=O)N[C@@H](CCCCN)C(=O)N[C@@H](CCCNC(=N)N)C(=O)N[C@@H](CC(N)=O)C(=O)N[C@@H](CC(N)=O)C(=O)N[C@@H](Cc1ccccc1)C(=O)N[C@@H](CCCCN)C(=O)N[C@H](C(=O)N[C@@H](CCC(=O)O)C(=O)N[C@@H](CCC(=O)O)C(=O)N[C@@H](Cc1ccc(O)cc1)C(=O)O)[C@@H](C)O [Angio-pep1] (H-TFFYGGCRGKRNNFKTEEY-OH; N-terminus and C-terminus assumed) |  |  |  |  | transcytosis capacity compared with other proteins [3]: higher than that of other proteins including aprotinin, leptin and transferrin; Ratios (permeability coefficients) [4]: 1; Permeability coefficient (Pe) ([4]; bovine): 20 ×10⁻⁶ cm/s; Papp A→B (in vitro): 20 ×10⁻⁶ cm/s
